The assay addresses T1, von Willebrand factor (UniProt P04275 764-2813, limits assumed).
T1 construct: also called vWF
The assay can be described thus: ELISA on coated vWF, bound FVIII detected with chromogenic Coatest SP FVIII reagents; reference value set by definition. As for the experimental part:
All other potencies were calculated in relation to ReFacto AF. […] However, the only significant difference could be detected between Nuwiq and FVIII-19M. The reduced binding, also of FVIII-6rs, might be due to different post-translational modifications made by the CAP-T cells. This could be correlated with the reduced sulfation detected in the heavy and light chain in the Western Blot. Missing sulfation might have influenced vWF binding, as especially the sulfation at Y1683 is important for the binding of vWF.
For the detection of the binding of the FVIII constructs to vWF, another ELISA was performed. In this case, vWF was coated to the wells of a 96-well plate at a concentration of 0.1 U/ml. Afterwards the FVIII variants were applied at a concentration of 0.25 U/ml. ReFacto AF was used as a reference. Each sample was furtheron diluted 1:2 in buffer. A total of 7 serial dilutions were performed. […] After addition of the substrate, the plate was immediately put into a plate reader and the development of the chromogenic substrate was measured at 405 nm for 490 seconds. The generated curves were analyzed using the PLA 3.0 software. Potencies of vWF-binding of the different FVIII products were calculated in relation to ReFacto AF.

B1: ReFacto AF (other)
chain: ATRRYYLGAVELSWDYMQSDLGELPVDARFPPRVPKSFPFNTSVVYKKTLFVEFTDHLFNIAKPRPPWMGLLGPTIQAEVYDTVVITLKNMASHPVSLHAVGVSYWKASEGAEYDDQTSQREKEDDKVFPGGSHTYVWQVLKENGPMASDPLCLTYSYLSHVDLVKDLNSGLIGALLVCREGSLAKEKTQTLHKFILLFAVFDEGKSWHSETKNSLMQDRDAASARAWPKMHTVNGYVNRSLPGLIGCHRKSVYWHVIGMGTTPEVHSIFLEGHTFLVRNHRQASLEISPITFLTAQTLLMDLGQFLLFCHISSHQHDGMEAYVKVDSCPEEPQLRMKNNEEAEDYDDDLTDSEMDVVRFDDDNSPSFIQIRSVAKKHPKTWVHYIAAEEEDWDYAPLVLAPDDRSYKSQYLNNGPQRIGRKYKKVRFMAYTDETFKTREAIQHESGILGPLLYGEVGDTLLIIFKNQASRPYNIYPHGITDVRPLYSRRLPKGVKHLKDFPILPGEIFKYKWTVTVEDGPTKSDPRCLTRYYSSFVNMERDLASGLIGPLLICYKESVDQRGNQIMSDKRNVILFSVFDENRSWYLTENIQRFLPNPAGVQLEDPEFQASNIMHSINGYVFDSLQLSVCLHEVAYWYILSIGAQTDFLSVFFSGYTFKHKMVYEDTLTLFPFSGETVFMSMENPGLWILGCHNSDFRNRGMTALLKVSSCDKNTGDYYEDSYEDISAYLLSKNNAIEPRSFSQNPPVLKRHQREITRTTLQSDQEEIDYDDTISVEMKKEDFDIYDEDENQSPRSFQKKTRHYFIAAVERLWDYGMSSSPHVLRNRAQSGSVPQFKKVVFQEFTDGSFTQPLYRGELNEHLGLLGPYIRAEVEDNIMVTFRNQASRPYSFYSSLISYEEDQRQGAEPRKNFVKPNETKTYFWKVQHHMAPTKDEFDCKAWAYFSDVDLEKDVHSGLIGPLLVCHTNTLNPAHGRQVTVQEFALFFTIFDETKSWYFTENMERNCRAPCNIQMEDPTFKENYRFHAINGYIMDTLPGLVMAQDQRIRWYLLSMGSNENIHSIHFSGHVFTVRKKEEYKMALYNLYPGVFETVEMLPSKAGIWRVECLIGEHLHAGMSTLFLVYSNKCQTPLGMASGHIRDFQITASGQYGQWAPKLARLHYSGSINAWSTKEPFSWIKVDLLAPMIIHGIKTQGARQKFSSLYISQFIIMYSLDGKKWQTYRGNSTGTLMVFFGNVDSSGIKHNIFNPPIIARYIRLHPTHYSIRSTLRMELMGCDLNSCSMPLGMESKAISDAQITASSYFTNMFATWSPSKARLHLQGRSNAWRPQVNNPKEWLQVDFQKTMKVTGVTTQGVKSLLTSMYVKEFLISSSQDGHQWTLFFQNGKVKVFQGNQDSFTPVVNSLDPPLLTRYLRIHPQSWVHQIALRMEVLGCEAQDLY
As for B1, the “potency of binding to vWF (relative to ReFacto AF)” value stood at 1 relative potency.

The record behind these values is patent US20240010707A1 (BIOTEST, published 2024).
